EC50 of cAMP accumulation (radioimmunoassay) in transiently transfected HEK 293 cells, stimulation with hCG for 1 h and EC50 of cAMP accumulation (radioimmunoassay) in transiently transfected HEK 293 cells, stimulation with hLH for 1 h data for 2 substances are collected here from paper PMC4585211.

For assay [1], the target named is LHCGR-Q303P/E305P (double proline mutant of the human lutropin/choriogonadotropin receptor), GFP fusion (human) (UniProt P22888).
Assay [2] concerns the target LHCGR-delExon10 (human lutropin/choriogonadotropin receptor lacking the exon10-encoded segment), GFP fusion (human) (UniProt P22888).

For “human choriogonadotropin (hCG) (from UniProt P01215 25-116; P0DN86 21-165) (ligand)”, the EC50 of cAMP accumulation (radioimmunoassay) in transiently transfected HEK 293 cells, stimulation with hCG for 1 h at 37°C; significantly right-shifted against wild type (0.15 IU/ml) in assay [1] was found to be 0.85 IU/ml. This substance also showed an EC50 of cAMP accumulation (radioimmunoassay) in transiently transfected HEK 293 cells, stimulation with hCG for 1 h at 37°C; wild-type-like (wild type 0.15 IU/ml) in assay [2] of 0.18 IU/ml.
For the substance “human lutropin (hLH) (from UniProt P01215 25-116; P01229 21-141) (ligand)”, the EC50 of cAMP accumulation (radioimmunoassay) in transiently transfected HEK 293 cells, stimulation with hLH for 1 h at 37°C; not significantly different from wild type (0.13 IU/ml) in assay [1] came to 0.24 IU/ml. Besides, the EC50 of cAMP accumulation (radioimmunoassay) in transiently transfected HEK 293 cells, stimulation with hLH for 1 h at 37°C; significantly right-shifted against wild type (0.13 IU/ml) in assay [2] came to 0.51 IU/ml.
